Assay results as given in paper PMC11161758 (Proceedings of the National Academy of Sciences of the …, 2024).

Target: T1, N-terminal FLAG tag-p22phox (human, UniProt P13498 1-195)
T1 sequence: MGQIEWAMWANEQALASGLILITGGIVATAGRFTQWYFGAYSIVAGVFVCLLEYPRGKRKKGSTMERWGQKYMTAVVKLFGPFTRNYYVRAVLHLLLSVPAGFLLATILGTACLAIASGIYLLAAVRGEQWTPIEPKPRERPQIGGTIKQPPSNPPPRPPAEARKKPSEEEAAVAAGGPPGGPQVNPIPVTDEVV
Assay: cryo-EM structure

stoichiometry N: 1
B1: NOX2 (gp91phox), catalytic subunit of phagocyte NADPH oxidase (enzyme)
chain: MGNWAVNEGLSIFVILVWLGLNVFLFVWYYRVYDIPPKFFYTRKLLGSALALARAPAACLNFNCMLILLPVCRNLLSFLRGSSACCSTRVRRQLDRNLTFHKMVAWMIALHSAIHTIAHLFNVEWCVNARVNNSDPYSVALSELGDRQNESYLNFARKRIKNPEGGLYLAVTLLAGITGVVITLCLILIITSSTKTIRRSYFEVFWYTHHLFVIFFIGLAIHGAERIVRGQTAESLAVHNITVCEQKISEWGKIKECPIPQFAGNPPMTWKWIVGPMFLYLCERLVRFWRSQQKVVITKVVTHPFKTIELQMKKKGFKMEVGQYIFVKCPKVSKLEWHPFTLTSAPEEDFFSIHIRIVGDWTEGLFNACGCDKQEFQDAWKLPKIAVDGPFGTASEDVFSYEVVMLVGAGIGVTPFASILKSVWYKYCNNATNLKLKKIYFYWLCRDTHAFEWFADLLQLLESQMQERNNAGFLSYNIYLTGWDESQANHFAVHHDEEKDVITGLKQKTLYGRPNWDNEFKTIASQHPNTRIGVFLCGPEALAETLSKQSISNSESGPRGVHFIFNKENF
modifications: N-glycan moieties at asparagines 132, 149 and 240; two hemes bound
